Laboratory results: patent publication US20260209316A1 (US Dept. of Health and Human Services, published 2026)

Key:
[1] = target: T1, mucin domain-deleted Sudan GP (GPdMuc) (Sudan virus (SUDV), UniProt Q7T9D9 33-632); test: BLI competition on Sudan GPdMuc (lower table); competitor 316L
T1 construct: also called Sudan GPdMuc; GP(S)dMuc

[2] = target: T1, mucin domain-deleted Sudan GP (GPdMuc); test: BLI competition on Sudan GPdMuc (lower table); competitor mAb166
[3] = target: T1, mucin domain-deleted Sudan GP (GPdMuc); test: BLI competition on Sudan GPdMuc (lower table); competitor 16F6
[4] = target: T1, mucin domain-deleted Sudan GP (GPdMuc); test: BLI competition on Sudan GPdMuc (lower table); competitor 15H10
[5] = target: T1, mucin domain-deleted Sudan GP (GPdMuc); test: ELISA on coated GP

Binder | % inhibition of binding [1] [%] | % inhibition of binding [2] [%] | % inhibition of binding [3] [%] | % inhibition of binding [4] [%] | EC50 [5] [µg/mL]
antibody 285S (antibody, V domains shown) VH: QVQLVQSGAEVKKPGSSVKVSCKASGGTFSTYAITWVRQAPGQGLEWMGRIIPILRVANYAQKFQGRVTITADSSTSTAYMELSSLRSEDTAVYYCANLLAYCGGDCRSDYWGQGTLVTVSS VL: EIVLTQSPGTLSLSPGERATLSCRASQSVKNSYLAWYHQKPGQAPRLLIYGASSRATGIPDRFSGSGSGTDFTLTISRLEPEDFAVYYCQQYGSSLWTFGQGTKVDVK | -6.78 | 64.6 | 3.29 | 7.47 | 0.02
antibody 382S (antibody, V domains shown) VH: QVQLVQSGAEVKKPGSSVKVSCKASGGTFSNYGISWVRQAPGQGLEWMGRNIPIIGIANYAQKFQDRVTITADKSTSTVFMELRSLRYEDTAVYYCARDPLAARRGNWFDPWGQGTLVTVSS VL: DIQMTQSPSTLSASVGDRVTITCRASQSVSSWLAWYQQKPGKAPKLLIYDASTLQSGVPSRFSGSGSGTEFTLTISSLQPDDFATYYCQQYNSYSYTFGQGTKLEIK | 10.7 | 84.9 | 13.6 | 17.6 | 0.26
antibody 335S (antibody, V domains shown) VH: EVQLVESGGGVVQPGRSLRLSCAASGFSFSNYAMHWVRQAPGKGLEWVAVTWYDGSSKYHADSVKGRFTISRDNSKNTLYLQMNSLRAEDTAVYYCARWGMGIVASPGNVLNYYYFMDVWGQGTTVIVSS VL: SYELTQPPSVSVSPGQTARITCSGNPLPKKHTYWYQQKPGQAPVLMIYKDSERPSRIPERFSGSSSGTTVTLTISGVQAEDEADYYCQSADSTGIVVFGGGTKLTVL | 1.49 | 80 | 8.17 | 8.78 | 0.02
antibody 102S (antibody, V domains shown) VH: EVQLVESGGGLVQPGGSLRLSCSASGFTFHSYDMNWARQAPGKGLEWVSEISSSGQSKNYADSVRGRFTISRDNAKNSLYLQINSLRSEDTAVYYCARVGFVAKFGSDFSITHGTYYLDYWGQGTLVTVSS VL: QLVLTQSPATLSLSPGERATLSCRASQSVSNYLAWYQQKPGQAPRLLIYDASNRAPGVPARFSGSGSGTDFSLTISSLEPEDFAVYYCLQRSNWPPWTFGQGTKVEIK | 10.3 | 78.2 | 19.4 | 11.9 | 0.09
antibody 365S (antibody, V domains shown) VH: EVQLVESGGGLVQPGGSLRLSCAASGLTFSAYEMNWVRQAPGKGLEWVSHITTSGSAIYYADSVKGRFTISRDNAKNSLHLQMNRLRADDTAVYFCARDSTIVQCSGTSCHVSTYSYMDVWGKGTTVTVSS VL: EIVLTQSPATLSLSPGERATLSCRASQSVTTYLAWYQHKPGQAPRLLIYDASKRATGIPARFSGSGSGTDFTLTISSLEPEDFAVYHCQQRSSWPPITFGQGTRLEIK | 5.16 | 84.2 | 12 | 9.47 | 0.06
antibody 405S (antibody, V domains shown) VH: EVQLVESGGGLIQPGGSLRLSCAASGFTVSSHYMSWVRQAPGKGLEWVSGIYSGGRTHYADSVKGRFTISRDNSKNTLYLQMNSLRADDTAVYSCARGTLLYLYGMDVWGQGTTVTVSS VL: QSVLTQPPSVSAAPGQRVTISCTGSSSNIGAGYNVHWYQQLPGAAPKLLIYGNTNRPSGVPDRFSGSKSGTSASLAITGLQAEDEADYYCQSFDSSLSGVFGTGTKVTVL | 7.24 | 84.1 | 10.1 | 11.1 | 0.04
